Values quoted from earlier work, collected in PMC5040959.

Target: Glu286 (UniProt position 286, FFGHPEVYIIV)
Assay: kinetics
Settings: fully reduced CytcO reacting with O2, F -> O step

Cytochrome c oxidase (cytochrome aa3), subunit I (Rhodobacter sphaeroides)
pKa: ~9
